Measured values from patent publication US20010055591A1 (WISYS TECHNOLOGY FOUNDATION, published 2001).

Assays:
[1] = biological target: T1, thrombin bound to 4-6 TM (recombinant EGF repeats 4-6 of thrombomodulin) (human, UniProt P00734 328-622; P07204 363-483); assay: discontinuous thrombin inhibition assay, chromogenic substrate; thrombin with 4-6 TM
Description: (§1) Serine Protease Inhibition Assays. The rates of inhibition of the serine proteases thrombin, factor Xa and APC in the presence and absence of heparin were measured using discontinuous assays under pseudo-first order rate conditions as described previously (Phillips et al., 1994; Rezaie et al., 1995). Protein was diluted in TBS buffer containing 0.1 mg/ml BSA, 0.1% PEG 8000, and 0.01% azide to a final reaction volume of 50 μl. […] Substrates used were Spectrozyme TH (SpTH) for thrombin and trypsin, PCA (SpPCA) for APC, and FXa (SpFXa) for Factor Xa (American Diagnostica, Greenwich, Conn.). Absorbances were determined using a SpectraMax Plus plate reader (Molecular Devices, Sunnyvale, Calif.). Absorbance is directly related to residual protease activity. In assays containing heparin, 1 mg/ml Polybrene was added to the substrate to block further heparin binding during substrate development. For heparin template curve data, varying concentrations (0-1000 μg/ml) of unfractionated heparin were added and proteins were diluted in HNPN buffer. For remaining heparin assays, the resulting optimal heparin concentration (5 μg/ml) was used. […] TM was either purified rabbit TM (RTM) or recombinant 4-6 TM (provided by Dr. Alireza Rezaie). Second-order rate constants of thrombin inhibition were determined using the following equation: […]
(§2) Inhibition in the presence of TM.

[2] = biological target: T2, thrombin (free thrombin) (human, UniProt P00734 328-622); assay: ratio of κ2 with heparin to κ2 without heparin
Description: as §1
(§3) Inhibition in the presence of heparin. Thrombin inhibition is accelerated (300- to 1000-fold) in the presence of heparin (Olson et al., 1992). […] Changes in heparin binding domains may alter the concentration of heparin required for the fastest rate of thrombin inhibition.

[3] = biological target: T1, thrombin bound to 4-6 TM (recombinant …); assay: ratio of κ2 with 4-6 TM to κ2 on free thrombin
Description: as §1, with “Protein” for “Serine Protease Inhibition Assays. The rates of inhibition of the serine proteases thrombin, factor Xa and APC in the presence and absence of heparin were measured using discontinuous assays under pseudo-first order rate conditions as described previously (Phillips et al., 1994; Rezaie et al., 1995). Protein”
as §2

[4] = biological target: T3, Factor Xa (human, UniProt P00742 41-179; P00742 235-488, limits assumed); assay: discontinuous Factor Xa inhibition assay, chromogenic substrate SpFXa
T3 construct: also called FXa
T3 sequence (P00742 41-179 limits assumed, form in doubt, chain 1 of 2): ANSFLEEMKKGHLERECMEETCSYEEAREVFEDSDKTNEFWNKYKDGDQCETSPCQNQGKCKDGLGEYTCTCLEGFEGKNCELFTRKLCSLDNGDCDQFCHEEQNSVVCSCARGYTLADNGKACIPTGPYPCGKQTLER
T3 sequence (P00742 235-488 limits assumed, form in doubt, chain 2 of 2): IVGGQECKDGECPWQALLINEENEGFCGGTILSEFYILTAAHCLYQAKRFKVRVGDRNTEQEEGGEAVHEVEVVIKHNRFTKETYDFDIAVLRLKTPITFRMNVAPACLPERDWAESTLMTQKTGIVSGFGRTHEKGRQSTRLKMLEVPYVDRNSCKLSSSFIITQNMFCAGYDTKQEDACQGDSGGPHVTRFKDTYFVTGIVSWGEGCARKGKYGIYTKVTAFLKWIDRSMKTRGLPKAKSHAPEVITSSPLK
Description: as §1

[5] = biological target: T4, trypsin; assay: discontinuous trypsin inhibition assay, chromogenic substrate SpTH
T4 construct: The source of the trypsin is doubtful, so see recheck
Description: as §1
Trypsin inhibition assays were performed to examine the overall activity of each mutant protein.

[6] = biological target: T2, thrombin (free thrombin); assay: discontinuous thrombin inhibition assay, chromogenic substrate; with 5 µg/ml heparin
Description: as §1, §3

[7] = biological target: T2, thrombin (free thrombin); assay: discontinuous thrombin inhibition assay, chromogenic substrate; no TM
Description: as §1, §2

[8] = biological target: T2, thrombin (free thrombin); assay: discontinuous thrombin inhibition assay, chromogenic substrate; no heparin
Description: as §1, §3

[9] = biological target: thrombin bound to rabbit thrombomodulin (RTM) (human; rabbit, UniProt P00734 328-622; Q8HZ48 21-576); assay: ratio of κ2 with RTM to κ2 on free thrombin
Description: as §1

[10] = biological target: T1, thrombin bound to 4-6 TM (recombinant …); assay: ratio of κ2 with 4-6 TM to κ2 on free thrombin; remark: listed apart in the source

second-order rate constant (κ2) of inhibition [1] | Ratio (+/-) of κ2 with and without heparin [2] | second-order rate constant (κ2) of inhibition [4] | second-order rate constant (κ2) of inhibition [5] | second-order rate constant (κ2) of inhibition [6] | second-order rate constant (κ2) of inhibition [7] | second-order rate constant (κ2) of inhibition [8] | Binder | Ratio (+/-) of κ2 with and without 4-6 TM [3] | Ratio to no TM (RTM) [9] | Ratio to no TM (4-6 TM) [10]
1200 M⁻¹ s⁻¹ | 263 fold | 260 M⁻¹ s⁻¹ | 10000 M⁻¹ s⁻¹ | 1.3e+06 M⁻¹ s⁻¹ | 2000 M⁻¹ s⁻¹ | 4800 M⁻¹ s⁻¹ | AT-P3R (antithrombin with the PCI reactive site loop and an arginine at P3) (other, I derived them from P1′ = serine 394 of mature antithrombin) HGSPVDICTAKPRDIPMNPMCIYRSPEKKATEDEGSEQKIPEATNRRVWELSKANSRFATTFYQHLADSKNDNDNIFLSPLSISTAFAMTKLGACNDTLQQLMEVFKFDTISEKTSDQIHFFFAKLNCRLYRKANKSSKLVSANRLFGDKSLTFNETYQDISELVYGAKLQPLDFKENAEQSRAAINKWVSNKTEGRITDVIPSEAINELTVLVLVNTIYFKGLWKSKFSPENTRKELFYKADGESCSASMMYQEGKFRYRRVAEGTQVLELPFKGDDITMVLILPKPEKSLAKVEKELTPEVLQEWLDELEEMMLVVHMPRFRIEDGFSLKEQLQDMGLVDLFSPEKSKLPGIVAEGRDDLYVSDAFHKAFLEVNEEGSEAAASTAVVIRFRSARPNRVTFKANRPFLVFIREVPLNTIIFMGRVANPCVK | 0.6 fold | – | –
20000 M⁻¹ s⁻¹ | 34 fold | 1000 M⁻¹ s⁻¹ | 9500 M⁻¹ s⁻¹ | 180000 M⁻¹ s⁻¹ | 5500 M⁻¹ s⁻¹ | 5300 M⁻¹ s⁻¹ | AT-pos (antithrombin H-helix mutant D309K, E310K, E312K, E313K) (other, Homo sapiens, UniProt P01008 33-464, looked up, mature; The residue numbers appear to count on mature antithrombin; also called H-helix mutant Poly-K) HGSPVDICTAKPRDIPMNPMCIYRSPEKKATEDEGSEQKIPEATNRRVWELSKANSRFATTFYQHLADSKNDNDNIFLSPLSISTAFAMTKLGACNDTLQQLMEVFKFDTISEKTSDQIHFFFAKLNCRLYRKANKSSKLVSANRLFGDKSLTFNETYQDISELVYGAKLQPLDFKENAEQSRAAINKWVSNKTEGRITDVIPSEAINELTVLVLVNTIYFKGLWKSKFSPENTRKELFYKADGESCSASMMYQEGKFRYRRVAEGTQVLELPFKGDDITMVLILPKPEKSLAKVEKELTPEVLQEWLKKLKKMMLVVHMPRFRIEDGFSLKEQLQDMGLVDLFSPEKSKLPGIVAEGRDDLYVSDAFHKAFLEVNEEGSEAAASTAVVIAGRSLNPNRVTFKANRPFLVFIREVPLNTIIFMGRVANPCVK | 3.7 fold | 90.7 fold | 3 fold
2500 M⁻¹ s⁻¹ | 210 fold | – | 6100 M⁻¹ s⁻¹ | 630000 M⁻¹ s⁻¹ | 3400 M⁻¹ s⁻¹ | 3000 M⁻¹ s⁻¹ | AT-rsl (antithrombin with the reactive site loop sequence of PCI) (other, Homo sapiens, UniProt P01008 33-464, looked up, mature; I derived them from P1′ = serine 394 of mature antithrombin; also called AT-rs1; Reactive site loop mutant) HGSPVDICTAKPRDIPMNPMCIYRSPEKKATEDEGSEQKIPEATNRRVWELSKANSRFATTFYQHLADSKNDNDNIFLSPLSISTAFAMTKLGACNDTLQQLMEVFKFDTISEKTSDQIHFFFAKLNCRLYRKANKSSKLVSANRLFGDKSLTFNETYQDISELVYGAKLQPLDFKENAEQSRAAINKWVSNKTEGRITDVIPSEAINELTVLVLVNTIYFKGLWKSKFSPENTRKELFYKADGESCSASMMYQEGKFRYRRVAEGTQVLELPFKGDDITMVLILPKPEKSLAKVEKELTPEVLQEWLDELEEMMLVVHMPRFRIEDGFSLKEQLQDMGLVDLFSPEKSKLPGIVAEGRDDLYVSDAFHKAFLEVNEEGSEAAASTAVVITFRSARPNRVTFKANRPFLVFIREVPLNTIIFMGRVANPCVK | 0.7 fold | – | –
